PMC4482198

Target: Angiotensin-II (Rattus norvegicus)
Assay: radioligand

- Kd: 2.8 nM
B1: Angiotensin II type-1 receptor (AT1R), P25095 (protein)
chain: MALNSSAEDGIKRIQDDCPKAGRHSYIFVMIPTLYSIIFVVGIFGNSLVVIVIYFYMKLKTVASVFLLNLALADLCFLLTLPLWAVYTAMEYRWPFGNHLCKIASASVSFNLYASVFLLTCLSIDRYLAIVHPMKSRLRRTMLVAKVTCIIIWLMAGLASLPAVIHRNVYFIENTNITVCAFHYESRNSTLPIGLGLTKNILGFLFPFLIILTSYTLIWKALKKAYEIQKNKPRNDDIFRIIMAIVLFFFFSWVPHQIFTFLDVLIQLGVIHDCKISDIVDTAMPITICIAYFNNCLNPLFYGFLGKKFKKYFLQLLKYIPPKAKSHSSLSTKMSTLSYRPSDNMSSSAKKPASCFEVE
